Columns and labels:
[1] = biological target: mature human IL-18 K89A mutant (human) (UniProt Q14116); assay: cell-based or functional assay
[2] = biological target: mature human IL-18 WT, generated by factor Xa cleavage of proIL-18 (ICE/Xa) (human) (UniProt Q14116); assay: cell-based or functional assay
Chain of mature human IL-18 WT, generated by factor Xa cleavage of proIL-18 (ICE/Xa) (human) (Q14116 37-193 limits assumed): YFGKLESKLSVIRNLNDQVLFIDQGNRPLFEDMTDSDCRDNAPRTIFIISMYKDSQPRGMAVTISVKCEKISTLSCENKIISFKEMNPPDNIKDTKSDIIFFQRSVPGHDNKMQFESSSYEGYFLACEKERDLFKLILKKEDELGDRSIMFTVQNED

Chain of mature human IL-18 K89A mutant (human) (Q14116 37-193 K89A): as the sequence (Q14116 37-193 limits assumed) above, with K53A counted along it

## "a" isoform of CHO cell produced recombinant his-6-tagged human IL-18BP (from UniProt O95998 31-194)
[1]
  IL-18BP concentration giving a statistically significant reduction of IFN-γ co-induction in NKO cells: 120 ng/mL
  IL-18BP concentration that neutralized IFN-γ induction in PBMCs: 120 ng/mL
[2]
  50% inhibitory concentration of IL-18BP for co-induction of IFN-γ from NKO cells: 15 ng/mL
  amount of IL-18BP needed to neutralize IFN-γ induction in PBMCs: 3.7 ng/mL

— patent US20020169291A1
